Patent US9518103B2, “Optogenetic probes for measuring membrane potential” (President and Fellows of Harvard College, priority 2014, dated 2016)
Substitutions are numbered along the chain they refer to. Names and notes keep the numbering of the source. Like-named read-outs stand apart in the source and are kept apart here.

B1: Arch D95N: Archaerhodopsin 3 D95N mutant, non-pumping voltage indicator of US 2013/0224756 (protein)
chain: MDPIALQAGYDLLGDGRPETLWLGIGTLLMLIGTFYFLVRGWGVTDKDAREYYAVTILVPGIASAAYLSMFFGIGLTEVTVGGEMLDIYYARYANWLFTTPLLLLDLALLAKVDRVTIGTLVGVDALMIVTGLIGALSHTAIARYSWWLFSTICMIVVLYFLATSLRSAAKERGPEVASTFNTLTALVLVLWTAYPILWIIGTEGAGVVGLGIETLLFMVLDVTAKVGFGFILLRSRAILGDTEAPEPSAGADVSAAD
B2: Arch(WT): wild-type Archaerhodopsin 3, light-driven proton pump from Halobacterium sodomense (protein)
chain: B1 chain with N95D
modifications: Halobacterium sodomense
notes: wild-type Archaerhodopsin 3, light-driven proton pump from Halobacterium sodomense
B3: Arch D95H/D106H: Arch double mutant D95H, D106H (protein)
chain: B1 chain with N95H, D106H
B4: Arch D95H/D106H/P60S: Arch triple mutant D95H, D106H, P60S (protein)
chain: B1 chain with P60S, N95H, D106H
B5: Arch D95H/D106H/F161V: Arch triple mutant D95H, D106H, F161V (protein)
chain: B1 chain with N95H, D106H, F161V

What was measured:
[1] = Quantum yield of solubilized protein (Cy5 reference); type: physicochemical; details: excitation at 600 nm
Method: Solubilization and spectroscopic characterization of QuasAr1 and QuasAr: E. coli expressing QuasAr1 and QuasAr2 were grown in 12 mL LB medium with 200 μg/ml ampicillin overnight. The next day, 12 mL of liquid LB medium containing 50 μM retinal, 200 μg/ml ampicillin and 0.1% arabinose was added into the overnight culture, followed by additional incubation at 37° C. for 4 hours. The cell pellets were collected by centrifugation and lysed by suspension in B-PER solution (Pierce). The cytoplasmic fraction was discarded after centrifugation and the colored insoluble fraction was resuspended in phosphate buffered saline (PBS) containing 1.5% n-dodecyl-β-D-maltopyranoside (Affymetrix, Inc.). The suspension was homogenized by an ultrasonic homogenizer and centrifuged (17,000 g for 15 mins, 4° C.). The solubilized protein in the supernatant was used for in vitro spectroscopic characterization.
Absorption spectra were recorded on a DU-800 UV-visible spectrophotometer (Beckman) and fluorescence spectra were recorded on a Safire2 plate reader (Tecan). Cy5 carboxylic acid (Cyandye) was used as the reference for quantum yield measurement. Quantum yield measurements were performed on a series of dilutions of each protein solution and standard, with absorbance values ranging from 0.01 to 0.05 at 600 nm. The fluorescence emission spectra of each dilution were recorded with excitation at 600 nm and the total fluorescence intensities obtained by integration. Integrated fluorescence intensity vs. absorbance was plotted for each protein and each standard. Quantum yields, Φ, were determined from the slopes (S) of each line using the equation: Φprotein=Φstandard×(Sprotein/Sstandard).

[2] = system: HEK293T cells; test: Simultaneous whole-cell patch clamp electrophysiology and fluorescence in HEK cells (brightness, voltage sensitivity, speed); type: cell-based; details: for voltage sensitivity (ΔF/F per 100 mV): HEK cells
Method: Simultaneous electrophysiology and fluorescence in HEK cells: HEK293T cells (ATCC CRL-11268) were cultured and transfected following standard protocols.^10 Briefly, HEK-293 cells were grown at 37° C., 5% CO2, in DMEM supplemented with 10% FBS and penicillin-streptomycin. Plasmids were transfected using Transit 293T (Mirus) following the manufacturer's instructions, and assayed 48 hours later. The day before recording, cells were re-plated onto glass-bottom dishes (MatTek) at a density of ˜10,000 cells/cm^2.
Cells were supplemented with retinal by diluting stock retinal solutions (40 mM, DMSO) in growth medium to a final concentration of 5 μM, and then returning the cells to the incubator for 0.5-1 hour. All imaging and electrophysiology were performed in Tyrode buffer (containing, in mM: 125 NaCl, 2.5 KCl, 3 CaCl2, 1 MgCl2, 10 HEPES, 30 glucose pH 7.3, and adjusted to 305-310 mOsm with sucrose). A gap junction blocker, 2-aminoethoxydiphenyl borate (50 μM, Sigma), was added to eliminate electrical coupling between cells.
Filamented glass micropipettes (WPI) were pulled to a tip resistance of 5-10 MΩ, and filled with internal solution containing 125 mM potassium gluconate, 8 mM NaCl, 0.6 mM MgCl2, 0.1 mM CaCl2, 1 mM EGTA, 10 mM HEPES, 4 mM Mg-ATP, 0.4 mM Na-GTP (pH 7.3); adjusted to 295 mOsm with sucrose. Pipettes were positioned with a Sutter MP285 manipulator. Whole-cell, voltage and current clamp recordings were acquired using an […] 700B amplifier (Molecular Devices), filtered at 2 kHz with the internal Bessel filter and digitized with a National Instruments PCIE-6323 acquisition board at 5-10 kHz. Data was only acquired from HEK cells having reversal potentials between −10 and −40 mV, access resistance<25 MΩ and membrane resistance>0.5 GΩ.
Simultaneous whole-cell patch clamp recordings and fluorescence recordings were acquired on a home-built, inverted epifluorescence microscope, described previously^10 and described below in “Apparatus”. For step response measurements, voltage clamp electronics were compensated 90-95%. We examined variants of QuasAr1 with mutations at position 95 (Asn, Cys, Gin, His and Tyr) and position 106 (Arg, Asp, Asn, Cys, Glu, His, Lys and Tyr). These experiments confirmed that histidine at position 106 provided undetectable photocurrent, and the best combination of improved voltage sensitivity, and fast kinetics.
We compared the fluorescence, voltage sensitivity, and speed of the QuasArs to wild-type Arch in HEK cells, using epifluorescence microscopy and whole-cell patch clamp electrophysiology. Under low intensity illumination (640 nm, 500 mW/cm^2), QuasAr1 was 15-fold brighter than wild-type Arch, and QuasAr2 was 3.3-fold brighter (FIG. 1B; Methods).

[3] = earlier work, cited from earlier work
[4] = system: cultured rat hippocampal neurons; test: Photocurrent in cultured rat hippocampal neurons; type: cell-based
Method: FIGS. 4A-4B show the photophysics of QuasArs in mammalian cells. […] Steady state photocurrents were calculated by averaging the current over the last 0.25 seconds of light exposure and subtracting the holding current (cells held at −65 mV) in the dark. These currents hyperpolarized cells by 25±4 mV and 19±3 mV, respectively. […] The double mutants had mutations at the locations of the proton acceptor (Asp95) and proton donor (Asp106) to the Schiff base. QuasAr1 includes mutations D95H, D106H, and QuasAr2 includes mutations D95Q, D106H. The three additional backbone mutations in the QuasArs (P60S, T80S, F161V) increased brightness relative to the double mutants, Fluorescence of each Arch mutant was measured with excitation at 640 nm and emission from 660-760 nm. To control for variation in expression level, fluorescence was normalized by eGFP fluorescence (λexc=488 nm, λem=510−550 nm). Error bars represent s.e.m. for measurements on n=5-10 cells.
Measurements were performed on primary cultures at 13-15 DIV. Experiments were conducted in Tyrode's solution containing 125 mM NaCl, 2.5 mM KCl, 3 mM CaCl2, 1 mM MgCl2, 10 mM HEPES, 30 mM glucose (pH 7.3) and adjusted to 305-310 mOsm with sucrose. Prior to imaging, neurons were incubated with 5 μM all-trans retinal for 30 minutes and then washed with Tyrode's solution.
Synaptic blockers were added to the imaging medium for measurements of single-cell electrophysiology (Arch photocurrents, and single-cell excitability). The blockers comprised NBQX (10 μM, Tocris), D(−)-2-amino-5-phosphonovaleric acid (APS; […]), and gabazine (SR-95531, 20 μM, Tocris). For measurements of channel rhodopsin photocurrents in neurons, TTX (1 μM, Tocris) was included along with the synaptic blockers to prevent recruitment of voltage gated sodium channels. […] Recordings were terminated if membrane resistance changed by >10%. Experiments were performed at 23° C. under ambient atmosphere unless otherwise noted.

[5] = blue illumination (488 nm, 500 mW/cm^2)
[6] = red illumination (640 nm, 300 W/cm^2)

Molecule	Quantum yield [1]	Quantum yield relative to Arch D95N [1]	voltage sensitivity (ΔF/F per 100 mV) [2]	step response / response time [3]	voltage sensitivity compared with QuasAr2 [2]	other results
B1	4 × 10^−4	1	60%	41 ms	–	step response / response time ([3]; listed as Arch 3 D95N): 40 ms
B2	*Due to the low light intensities used to determine QYs, fluorescence from Arch was not detected above baseline.	–	40%	0.6 ms	three-fold less than the sensitivity of QuasAr2	τdown (+30 mV to −70 mV) % τ1 ([2]; 23° C.): 67%; τdown (+30 mV to −70 mV) τ1 ([2]; 23° C.): 0.25 ms; τdown (+30 mV to −70 mV) τ2 ([2]; 23° C.): 1.9 ms; τup (−70 mV to +30 mV) τ1 ([2]; 23° C.): 0.6 ms; Brightness (λexc = 640 nm) 0.7 W/cm^2 ([2]; 23° C., HEK293 cells): 1; Brightness (λexc = 640 nm) 800 W/cm^2 ([2]; 23° C., HEK293 cells): 4.0; Sensitivity (ΔF/F per 100 mV) ([2]; 23° C., HEK293 cells): 40%; hyperpolarization of cells by photocurrent [4, 5]: 19±3 mV; photocurrent [4, 5]: 140±25 pA; hyperpolarization of cells by photocurrent [4, 6]: 25±4 mV; photocurrent [4, 6]: 220±30 pA
B3	2 × 10^−3	4.2	–	–	three-fold less than the sensitivity of QuasAr2	–
B4	5 × 10^−3	12	–	–	–	–
B5	5 × 10^−3	13	–	–	–	–
